B1: Transforming growth factor-beta-induced protein ig-h3 (Homo sapiens), Q15582 (parent)
chain: MALFVRLLALALALALGPAATLAGPAKSPYQLVLQHSRLRGRQHGPNVCAVQKVIGTNRKYFTNCKQWYQRKICGKSTVISYECCPGYEKVPGEKGCPAALPLSNLYETLGVVGSTTTQLYTDRTEKLRPEMEGPGSFTIFAPSNEAWASLPAEVLDSLVSNVNIELLNALRYHMVGRRVLTDELKHGMTLTSMYQNSNIQIHHYPNGIVTVNCARLLKADHHATNGVVHLIDKVISTITNNIQQIIEIEDTFETLRAAVAASGLNTMLEGNGQYTLLAPTNEAFEKIPSETLNRILGDPEALRDLLNNHILKSAMCAEAIVAGLSVETLEGTTLEVGCSGDMLTINGKAIISNKDILATNGVIHYIDELLIPDSAKTLFELAAESDVSTAIDLFRQAGLGNHLSGSERLTLLAPLNSVFKDGTPPIDAHTRNLLRNHIIKDQLASKYLYHGQTLETLGGKKLRVFVYRNSLCIENSCIAAHDKRGRYGTLFTMDRVLTPPMGTVMDVLKGDNRFSMLVAAIQSAGLTETLNREGVYTVFAPTNEAFRALPPRERSRLLGDAKELANILKYHIGDEILVSGGIGALVRLKSLQGDKLEVSLKNNVVSVNKEPVAEPDIMATNGVVHVITNVLQPPANRPQERGDELADSALEIFKQASAFSRASQRSVRLAPVYQKLLERMKH
partner: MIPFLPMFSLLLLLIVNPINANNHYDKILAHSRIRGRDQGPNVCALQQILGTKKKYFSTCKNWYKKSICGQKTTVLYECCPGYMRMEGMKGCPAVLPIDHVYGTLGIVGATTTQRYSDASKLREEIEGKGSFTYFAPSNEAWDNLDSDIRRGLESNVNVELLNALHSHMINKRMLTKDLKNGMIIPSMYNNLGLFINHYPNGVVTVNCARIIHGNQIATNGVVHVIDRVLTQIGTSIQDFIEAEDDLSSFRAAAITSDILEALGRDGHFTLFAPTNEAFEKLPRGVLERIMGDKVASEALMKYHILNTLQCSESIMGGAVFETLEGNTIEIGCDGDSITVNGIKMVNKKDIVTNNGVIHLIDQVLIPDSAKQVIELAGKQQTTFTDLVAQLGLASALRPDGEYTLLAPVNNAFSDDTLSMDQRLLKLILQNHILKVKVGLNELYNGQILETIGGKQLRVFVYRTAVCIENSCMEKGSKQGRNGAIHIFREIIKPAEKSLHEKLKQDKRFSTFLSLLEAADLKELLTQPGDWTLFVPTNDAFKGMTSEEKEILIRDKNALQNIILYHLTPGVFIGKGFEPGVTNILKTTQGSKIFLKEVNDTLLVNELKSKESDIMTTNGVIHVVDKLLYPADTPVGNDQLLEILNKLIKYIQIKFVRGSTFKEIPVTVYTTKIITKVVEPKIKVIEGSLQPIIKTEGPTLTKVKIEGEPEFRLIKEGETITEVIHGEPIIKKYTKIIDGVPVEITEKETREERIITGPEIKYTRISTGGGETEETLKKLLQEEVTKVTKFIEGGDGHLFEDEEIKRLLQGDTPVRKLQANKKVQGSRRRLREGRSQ

Variants of: B1
Conditions: with postn_human POSTN

| effect of a mutation on the interaction | Variant |
| --- | --- |
| disrupting interaction strength | R124H |

From IntAct's records for PubMed 19478074
